Measured values published in paper PMC4316792, “The dehydrogenase region of the NADPH oxidase component Nox2 acts as a protein disulfide isomerase (PDI) resembling PDIA3 with a role in the binding of the activator protein p67^phox” (Frontiers in Chemistry, 2015).

B1: p67^phox(1–212) [not stated] / Nox2 peptide 24 (357–371) with an intramolecular disulfide bond between C369 and C371 [modified: biotin on the N-terminus; C-terminal amide; intramolecular disulfide bond between C369 and C371; biotin on the … (parent complex)
chain 1: MSLVEAISLWNEGVLAADKKDWKGALDAFSAVQDPHSRICFNIGCMYTILKNMTEAEKAFTRSINRDKHLAVAYFQRGMLYYQTEKYDLAIKDLKEALIQLRGNQLIDYKILGLQFKLFACEVLYNIAFMYAKKEEWKKAEEQLALATSMKSEPRHSKIDKAMECVWKQKLYEPVVIPVGKLFRPNERQVAQLAKKDYLGKATVVASVVDQD
chain 2: SGSGIVGDWTEGLFNACGC

Variants of: B1
Experiment: peptide-protein binding assay (surface-attached biotinylated peptide, protein in solution, kinetic TMB oxidation read-out); 10 min kinetic experiment; read off a plot

Variant	response
chain 1 C40S, chain 1 C45S, chain 1 C121S, chain 1 C165S	~12 Absorbance (650 nm) x 1000/min
